Laboratory results: patent US20070148180A1, “Peptide-immunoglobulin-conjugate” (priority 2005, published 2007)
No end group written: not given here.

Tests used:
[1] = system: pseudotyped NL-Bal viruses; conditions: pseudotyped NL-Bal virus, single-cycle, JC53-BL cells
[2] = biological target: biotinylated HR1 peptide Biotin-T-2324 (HIV-1 gp41 HR1) (Human immunodeficiency virus type 1 group M subtype B, UniProt P04582, G556A); assay: Binding affinity of HR2 containing polypeptides to HR1 by Surface Plasmon Resonance (BIAcore 3000); conditions: SPR, 25° C., immobilized HR1 peptide Biotin-T-2324, 1:1 Langmuir model
live NL-Bal viruses = assay type: cell-based, HIV-1; conditions: live NL-Bal virus, JC53-BL cells, luciferase activity

Method for HIV-1 JR-CSF virus: Human PBMC were isolated from buffy-coats (obtained from the Stanford Blood Center) by a Ficoll-Paque (Amersham, Piscataway, N.J., USA) density gradient centrifugation according to manufacturer's protocol. Briefly, blood was transferred from the buffy coats in 50 ml conical tubes and diluted with sterile Dulbecco's phosphate buffered saline (Invitrogen/Gibco) to a final volume of 50 ml. Twenty-five ml of the diluted blood was transferred to two 50 ml conical tubes, carefully underlayerd with 12.5 ml of Ficoll-Paque Plus (Amersham Biosciences) and centrifuged at room temperature for 20 min. at 450×g without braking. The white cell layer was carefully transferred to a new 50 ml conical tube and washed twice with PBS. To remove remaining red blood cells, cells were incubated for 5 min. at room temperature with ACK lysis buffer (Biosource) and washed one more time with PBS. PBMC were counted and incubated at a concentration of 2-4×10^6 cells/ml in RPMI1640 containing 10% FCS (Invitrogen/Gibco), 1% penicillin/streptomycin, 2 mM L-glutamine, 1 mM sodium-pyruvate, and 2 μg/ml Phytohemagglutinin (Invitrogen) for 24 h at 37° C. […] Virus production was measured at the end of infection by using p24 ELISA (HIV-1 p24 ELISA #NEK050B) using the sigmoid dose-response model with one binding site in Microsoft Excel Fit (version 3.0.5 Build12; equation 205; Microsoft).

Compound | Antiviral activity IC50 ([1]; 3 day incubation, luciferase activity) [µg/mL] | Antiviral activity % Inhibition at 20 μg/mL [1] [%] | KA [2] [M⁻¹] | Kd [2] [nM] | ka [2] [M⁻¹ s⁻¹] | kd [2] [s⁻¹] | Antiviral activity % Inhibition at 20 μg/mL (live NL-Bal viruses) [%] | Antiviral activity IC50 (HIV-1 JR-CSF virus) [ng/mL]
enfuvirtide | 0.38 | – | – | – | – | – | – | –
4970/4802: anti-IGF-1R IgG1: wt light chain 4802, heavy chain 4970 with T-651 conjugated C-terminally via linker SEQ ID NO: 11 (GGGGSGGGGSGGGGSGGNMTWMEWDREINNYTSLIHSLIEESQNQQEKNEQELL; also: fused C-terminally to heavy chain of anti-IGF-1R IgG1) | – | 15 | 9.11e+10 | 0.011 | 1.01e+06 | 1.11e-05 | 20 | –
CC[C@H](C)[C@H](NC(=O)[C@H](C)NC(=O)[C@H](CCCNC(=N)N)NC(=O)[C@H](CC(=O)O)NC(=O)[C@H](Cc1c[nH]c2ccccc12)NC(=O)[C@H](C)NC(=O)[C@H](CCC(=O)O)NC(=O)[C@H](Cc1c[nH]c2ccccc12)NC(=O)[C@@H](NC(=O)[C@@H](NC(C)=O)[C@@H](C)O)[C@@H](C)O)C(=O)N[C@@H](C)C(=O)N[C@@H](CCC(=O)O)C(=O)N[C@@H](Cc1ccc(O)cc1)C(=O)N[C@@H](C)C(=O)N[C@@H](C)C(=O)N[C@@H](CCCNC(=N)N)C(=O)N[C@H](C(=O)N[C@@H](CCC(=O)O)C(=O)N[C@@H](C)C(=O)N[C@@H](CC(C)C)C(=O)N[C@H](C(=O)N[C@@H](CCCNC(=N)N)C(=O)N[C@@H](C)C(=O)N[C@@H](C)C(=O)N[C@@H](CCC(N)=O)C(=O)N[C@@H](CCC(=O)O)C(=O)N[C@@H](CCC(N)=O)C(=O)N[C@@H](CCC(N)=O)C(=O)N[C@@H](CCC(=O)O)C(=O)N[C@@H](CCCCN)C(=O)N[C@@H](CC(N)=O)C(=O)N[C@@H](CCC(=O)O)C(=O)N[C@@H](C)C(=O)N[C@@H](C)C(=O)N[C@@H](CC(C)C)C(=O)N[C@@H](CCCNC(=N)N)C(=O)N[C@@H](CCC(=O)O)C(=O)N[C@@H](CC(C)C)C(N)=O)[C@@H](C)CC)[C@@H](C)CC [Compound T-2635] | – | – | – | – | – | – | – | 4
4976/4818: anti-IGF-1R IgG1: light chain 4976 with T-651 N-terminal (including variable domain), wt heavy chain 4818 (QIWNNMTWMEWDREINNYTSLIHSLIEESQNQQEKNEQELLGGGGSGGGGSGGGGSGAS; also: fused N-terminally to light chain of anti-IGF-1R IgG1) | – | 17 | 2.63e+10 | 0.038 | 923000 | 3.51e-05 | 38 | –
4972/4802: anti-IGF-1R IgG1: wt light chain 4802, heavy chain 4972 with T-2635 conjugated C-terminally via linker SEQ ID NO: 11 (GGGGSGGGGSGGGGSGGTTWEAWDRAIAEYAARIEALIRAAQEQQEKNEAALREL; also: fused C-terminally to heavy chain of anti-IGF-1R IgG1) | – | 27 | 1.01e+10 | 0.0987 | 786000 | 7.76e-05 | 43 | –
